Assay [1] deals with T1, neuronal pentraxin receptor (NPR), full length, rat (rat, UniProt O35764 1-494).
T1 construct: whole, on cells; Stands for NPR expressed in HEK293T cells and for native NPR of rat brain extracts; also called full-length NPR; wtNPR
T1 sequence (looked up): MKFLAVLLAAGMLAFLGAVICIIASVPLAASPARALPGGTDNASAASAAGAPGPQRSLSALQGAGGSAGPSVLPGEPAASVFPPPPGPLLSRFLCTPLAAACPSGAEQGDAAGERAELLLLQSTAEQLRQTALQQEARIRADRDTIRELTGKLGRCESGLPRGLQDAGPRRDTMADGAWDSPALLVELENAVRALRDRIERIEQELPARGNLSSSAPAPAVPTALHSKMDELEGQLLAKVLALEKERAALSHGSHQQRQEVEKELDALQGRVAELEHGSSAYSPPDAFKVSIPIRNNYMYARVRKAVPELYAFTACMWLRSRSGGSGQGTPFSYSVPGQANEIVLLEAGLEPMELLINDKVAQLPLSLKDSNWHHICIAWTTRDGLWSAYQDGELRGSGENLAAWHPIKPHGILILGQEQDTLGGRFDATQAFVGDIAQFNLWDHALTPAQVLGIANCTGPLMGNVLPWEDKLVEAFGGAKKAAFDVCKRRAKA
Put plainly: co-IP from co-transfected HEK293T cells. An excerpt:
(§1) Narp and NP1 form highly organized homo- and hetero-multimer complexes that are covalently linked by N-terminal disulfide bonds (Xu et al., supra). Moreover, NPR and Narp formed heteromultimer complexes when coexpressed in HEK293T cells. Heteromultimer complex formation is dependent on the first and third cysteines of NPs that flank the first coiled-coil domain (Xu et al., supra). NPR was co-expressed with mutants of Narp, in which two or all three of the cysteines are mutated to serine. In mutant “Narp (C1, 2S),” the cysteines at positions 14 and […] were mutated to serines, and in mutant “Narp (C1, 2, 3S)” the cysteines at positions 14, 26, and 79 were mutated to serines. […] Thus, it appeared that NPR and Narp formed heterocomplexes that are stabilized by disulfide bonds. To examine NP complexes in brain, lysates from a control mouse were prepared and immunoprecipitated with rabbit antibody specific to NP1 or Narp. Lysates from knockout mice NP1 KO, Narp KO and combined NP1/Narp/NPR KO (NP TKO) were also utilized as controls. […] The ˜25 kDa band, presumptive NTF-NPR, also specifically co-IPed with both Narp and NP1. […] The pentraxin domain of Narp and NP1 is required for interaction with AMPAR.
(§2) To determine if NPR would interact with AMPAR, AMPAR subunits from GluR1 or GluR6 were HA tagged (GluR1-HA and GluR6-HA, respectively) were co-transfected with myc-tagged Narp (Narp-myc) or NPR(NPR-myc) into HEK293T cells. Lysates were assayed for co-immunoprecipitation. […] Similarly, GluR1-HA but not GluR6-HA co-IPed with NPR-myc.

The target of assay [2] is T2, GluR6-HA (HA tagged GluR6 of Example 10) (UniProt P42260 32-908, limits assumed).
T2 construct: whole, on cells; not shown: HA tag
T2 sequence (P42260 32-908 limits assumed): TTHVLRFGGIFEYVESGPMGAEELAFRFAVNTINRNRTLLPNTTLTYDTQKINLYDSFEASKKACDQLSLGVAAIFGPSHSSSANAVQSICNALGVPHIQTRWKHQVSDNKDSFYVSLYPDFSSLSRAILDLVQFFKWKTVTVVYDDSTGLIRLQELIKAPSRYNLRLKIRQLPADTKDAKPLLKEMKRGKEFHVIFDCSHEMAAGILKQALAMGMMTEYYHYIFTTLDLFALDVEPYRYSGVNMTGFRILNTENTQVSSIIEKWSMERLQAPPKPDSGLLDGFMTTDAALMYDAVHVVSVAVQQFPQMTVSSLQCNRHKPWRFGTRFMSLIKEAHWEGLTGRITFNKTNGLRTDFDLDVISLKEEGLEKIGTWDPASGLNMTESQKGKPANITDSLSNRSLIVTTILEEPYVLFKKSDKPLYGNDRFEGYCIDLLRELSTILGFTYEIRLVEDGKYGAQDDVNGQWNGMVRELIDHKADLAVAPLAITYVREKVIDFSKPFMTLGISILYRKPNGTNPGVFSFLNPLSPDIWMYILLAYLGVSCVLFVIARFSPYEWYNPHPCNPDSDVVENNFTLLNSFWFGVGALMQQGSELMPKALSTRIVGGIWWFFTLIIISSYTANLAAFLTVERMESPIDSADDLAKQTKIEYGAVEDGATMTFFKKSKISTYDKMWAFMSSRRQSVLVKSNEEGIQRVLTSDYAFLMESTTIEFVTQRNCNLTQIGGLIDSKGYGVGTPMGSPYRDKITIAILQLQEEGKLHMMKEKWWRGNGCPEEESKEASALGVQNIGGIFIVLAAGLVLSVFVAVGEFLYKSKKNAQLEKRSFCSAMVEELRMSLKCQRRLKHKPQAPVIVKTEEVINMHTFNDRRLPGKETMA
The assay is described as follows: co-IP from co-transfected HEK293T cells.
Excerpt: as §1, §2

For assay [3], the target named is T3, native NPR of mouse brain (mouse, UniProt Q99J85 1-493).
T3 sequence (looked up): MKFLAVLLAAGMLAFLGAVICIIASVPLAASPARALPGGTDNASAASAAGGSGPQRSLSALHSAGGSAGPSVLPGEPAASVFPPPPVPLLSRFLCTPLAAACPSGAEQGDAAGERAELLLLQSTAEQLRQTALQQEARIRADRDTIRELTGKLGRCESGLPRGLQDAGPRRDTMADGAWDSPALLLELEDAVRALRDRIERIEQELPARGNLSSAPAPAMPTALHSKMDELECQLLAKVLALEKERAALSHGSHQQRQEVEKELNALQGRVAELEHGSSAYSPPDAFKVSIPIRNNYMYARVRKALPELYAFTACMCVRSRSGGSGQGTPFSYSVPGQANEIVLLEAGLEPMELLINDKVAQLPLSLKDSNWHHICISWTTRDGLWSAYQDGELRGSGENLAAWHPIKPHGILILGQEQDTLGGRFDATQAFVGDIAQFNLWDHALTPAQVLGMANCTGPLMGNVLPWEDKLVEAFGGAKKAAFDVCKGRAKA
The assay is described as follows: co-IP from mouse brain lysate with a rabbit antibody to NP1; knockout lysates as controls.
Excerpt: as §1

For assay [4], the target named is T3, native NPR of mouse brain. Put plainly: co-IP from mouse brain lysate with a rabbit antibody to Narp; knockout lysates as controls.
Excerpt: as §1

B1: Narp (C1, 3S)-myc, Narp mutant in which cysteines 14 and 79 are mutated to serines (ligand)
chain: QAQDNPIPGSRFVSTALPPEAARAGCPLPAMPMQGGALSPEEELRAAVLHWRETVVQQKETLGAQREAIRELTSKLARSEGLAGGKARGTGATGKDTMGDLPRDPGHVVEQLSRSLQTLKDRLESLELQLHTNASNAGLPSDFREVLQRRLGELERQLLRKVAELEDEKSLLHNETSAHRQKTENTLNALLQRVTELERGNSAFKSPDAFKVSLPLRTNYLYGKIKKTLPELYAFTICLWLRSSASPGIGTPFSYAVPGQANEIVLIEWGNNPIELLINDKVAQLPLFVSDGKWHHICITWTTRDGMWEAFQDGEKLGTGENLAPWHPIKPGGVLILGQEQDTVGGRFDATQAFVGELSQFNIWDRVLRAQEIINIANCSTNMPGNIIPWVDNNVDVFGGASKWPVETCEERLLDL
notes: also called Narp (C1, 2S); mutant Narp; not shown: C-terminal myc tag
For B1, the binding result in assay [1] is “no binding”.

B2: C-terminal myc-tagged version of Narp (myc-Narp) (ligand)
chain: QAQDNPIPGSRFVCTALPPEAARAGCPLPAMPMQGGALSPEEELRAAVLHWRETVVQQKETLGAQREAIRELTSKLARCEGLAGGKARGTGATGKDTMGDLPRDPGHVVEQLSRSLQTLKDRLESLELQLHTNASNAGLPSDFREVLQRRLGELERQLLRKVAELEDEKSLLHNETSAHRQKTENTLNALLQRVTELERGNSAFKSPDAFKVSLPLRTNYLYGKIKKTLPELYAFTICLWLRSSASPGIGTPFSYAVPGQANEIVLIEWGNNPIELLINDKVAQLPLFVSDGKWHHICITWTTRDGMWEAFQDGEKLGTGENLAPWHPIKPGGVLILGQEQDTVGGRFDATQAFVGELSQFNIWDRVLRAQEIINIANCSTNMPGNIIPWVDNNVDVFGGASKWPVETCEERLLDL
notes: also called myc-tagged Narp; myc-tagged full length Narp; not shown: C-terminal myc tag
Take B2: the binding result in assay [2] was “no binding”.

B3: Narp (C1, 2, 3S)-myc, Narp mutant in which cysteines 14, 26, and 79 are mutated to serines (ligand)
chain: QAQDNPIPGSRFVSTALPPEAARAGSPLPAMPMQGGALSPEEELRAAVLHWRETVVQQKETLGAQREAIRELTSKLARSEGLAGGKARGTGATGKDTMGDLPRDPGHVVEQLSRSLQTLKDRLESLELQLHTNASNAGLPSDFREVLQRRLGELERQLLRKVAELEDEKSLLHNETSAHRQKTENTLNALLQRVTELERGNSAFKSPDAFKVSLPLRTNYLYGKIKKTLPELYAFTICLWLRSSASPGIGTPFSYAVPGQANEIVLIEWGNNPIELLINDKVAQLPLFVSDGKWHHICITWTTRDGMWEAFQDGEKLGTGENLAPWHPIKPGGVLILGQEQDTVGGRFDATQAFVGELSQFNIWDRVLRAQEIINIANCSTNMPGNIIPWVDNNVDVFGGASKWPVETCEERLLDL
notes: also called mutant Narp; not shown: C-terminal myc tag
As for B3, the binding result in assay [1] is “no binding”.

B4: native neuronal pentraxin 1 (NP1) of mouse brain (ligand, UniProt Q62443 23-432, looked up)
chain: QDFGPTRFICTSVPVDADMCAASVAAGGAEELRSNVLQLRETVLQQKETILSQKETIRELTTKLGRCESQSTLDSGPGEARSGGGRKQPGSGKNTMGDLSRTPAAETLSQLGQTLQSLKTRLENLEQYSRLNSSSQTNSLKDLLQSKIDDLERQVLSRVNTLEEGKGGPKNDTEERAKIESALTSLHQRISELEKGQKDNRPGDKFQLTFPLRTNYMYAKVKKSLPEMYAFTVCMWLKSSAAPGVGTPFSYAVPGQANELVLIEWGNNPMEILINDKVAKLPFVINDGKWHHICVTWTTRDGVWEAYQDGTQGGNGENLAPYHPIKPQGVLVLGQEQDTLGGGFDATQAFVGELAHFNIWDRKLTPGEVYNLATCSSKALSGNVIAWAESQIEIFGGATKWTFEACRQIN
In the case of B4, in assay [3], the binding result is “binds”.

B5: native Narp of mouse brain (ligand, UniProt O70340 15-429, looked up)
chain: AGRAQDSPIPGSRFVCTALPPEAARAGCPLPAMPMQGGALSPEEELRAAVLQLRETVVQQKETLGAQREAIRELTGKLARCEGLAGGKARGTGKDTMGDLPRDPGHVVEQLSRSLQTLKDRLESLELQLRTNVSNAGLPSDFREVLQRRLGELERQLLRKVAELEDEKSLLHNETSAHRQKTESTLNALLQRVTELERGNSAFKSPDAFKVSLPLRTNYLYGKIKKTLPELYAFTICLWLRSSASPGIGTPFSYAVPGQANEIVLIEWGNNPIELLINDKVAQLPLFVSDGKWHHICITWTTRDGMWEAFQDGEKLGTGENLAPWHPIKPGGVLILGQEQDTVGGRFDATQAFVGELSQFNIWDRVLRAQEIINIANCSTNMPGNIIPWVDNNVDVFGGASKWPVETCEERLLDL
As to B5, the binding result in assay [4] was “binds”.

The values above are taken from patent US20090123940A1 (Johns Hopkins, published 2009).
